Assay results taken from patent US9758792B2, “Glyphosate resistant class 1 EPSPS genes” (SYNGENTA PARTICIPATIONS AG, priority 2013, dated 2017).

Experiments:
[1] = molecular target: native EPSPS from E. coli (Escherichia coli, UniProt P0A6D3); conditions: read-out: apparent Km for PEP; cited from earlier work
[2] = tested on: tobacco leaf discs; assay: Screening maize mutants using tobacco regeneration system on glyphosate medium; format: cell-based; conditions: regeneration medium containing 50 nM glyphosate and 200 mg/L Timentin
Description: The efficacy of maize mutant genes (Table 2) were tested using a tobacco leaf discs transformation/regeneration system. […] Additionally, a third mutant comprising the mutations of mutant #8 and #13 is possible resulting in an […] mutant.

[3] = tested on: T0 transgenic tobacco plants; assay: Spray with glyphosate (Touchdown) on ZmEPSPS mutant containing tobacco; format: in vivo; conditions: for tolerance to Touchdown spray: 2× and 4× field rates; for tolerance to Touchdown spray / herbicide damage: 2 weeks post treatment; for herbicide damage: 4× field rates as printed in the text; for Damage: assessed 2 weeks post treatment
Description: T0 transgenic tobacco plants were grown on soil for 4 weeks in Conviron growth chambers. These plants were sprayed with 2×, 4× and 8× Touchdown herbicide at 2×, 4× and 8× field rate (1× field rate=1680 g AE/Ha), respectively, and the herbicide damage was assessed 2 weeks post treatment. […]

[4] = Touchdown 2X field rate (1X = 1680 g AE/Ha)
[5] = Touchdown 4X field rate (1X = 1680 g AE/Ha)
[6] = Touchdown 8X field rate (1X = 1680 g AE/Ha)

Chain of native EPSPS from E. coli (P0A6D3 whole entry): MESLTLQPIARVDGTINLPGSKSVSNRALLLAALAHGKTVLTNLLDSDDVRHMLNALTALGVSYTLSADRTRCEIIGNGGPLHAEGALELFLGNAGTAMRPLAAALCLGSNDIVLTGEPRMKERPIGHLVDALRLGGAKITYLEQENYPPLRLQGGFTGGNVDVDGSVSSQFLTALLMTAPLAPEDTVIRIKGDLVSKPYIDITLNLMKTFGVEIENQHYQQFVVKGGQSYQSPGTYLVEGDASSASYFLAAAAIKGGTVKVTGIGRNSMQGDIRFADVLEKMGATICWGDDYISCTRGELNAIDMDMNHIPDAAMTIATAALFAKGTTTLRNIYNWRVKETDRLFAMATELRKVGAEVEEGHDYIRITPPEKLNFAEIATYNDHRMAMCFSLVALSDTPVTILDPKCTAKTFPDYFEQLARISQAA

Molecule: C=C(OP(=O)(O)O)C(=O)O [PEP, phosphoenolpyruvic acid]
- Km [1]: 10 µM

B1: ZmEPSPS-20: maize EPSPS mutant gene/protein, A68D and T102I; contains Table 2 mutant #13; SEQ ID NO. 6 (protein)
chain: AGAEEIVLQPIKEISGTVKLPGSKSLSNRILLLAALSEGTTVVDNLLNSEDVHYMLGALRTLGLSVEXDKAAKRAVVVGCGGKFPVEDAKEEVQLFLGNAGIAMRPLTAAVTAAGGNATYVLDGVPRMRERPIGDLVVGLKQLGADVDCFLGTDCPPVRVNGIGGLPGGKVKLSGSISSQYLSALLMAAPLALGDVEIEIIDKLISIPYVEMTLRLMERFGVKAEHSDSWDRFYIKGGQKYKSPKNAYVEGDASSASYFLAGAAITGGTVTVEGCGTTSLQGDVKFAEVLEMMGAKVTWTETSVTVTGPPREPFGRKHLKAIDVNMNKMPDVAMTLAVVALFADGPTAIRDVASWRVKETERMVAIRTELTKLGASVEEGPDYCIITPPEKLNVTAIDTYDDHRMAMAFSLAACAEVPVTIRDPGCTRKTFPDYFDVLSTFVKN
modifications: Mutated zea mays; (68)..(68) X = D or E
- ability to regenerate on glyphosate media [2]: tolerant mutants
- tolerance to Touchdown spray [3]: completely tolerant
- herbicide damage [3]: only minor damage
- Damage [3, 4]: No damage
- Damage [3, 5]: No damage
- Damage [3, 6]: Minor damage at shoot apex

B2: ZmEPSPS-27: maize EPSPS mutant gene/protein, A68E and G101C; contains Table 2 mutant #8; SEQ ID NO. 7 (protein)
chain: AGAEEIVLQPIKEISGTVKLPGSKSLSNRILLLAALSEGTTVVDNLLNSEDVHYMLGALRTLGLSVEXDKAAKRAVVVGCGGKFPVEDAKEEVQLFLGNACTAMRPLTAAVTAAGGNATYVLDGVPRMRERPIGDLVVGLKQLGADVDCFLGTDCPPVRVNGIGGLPGGKVKLSGSISSQYLSALLMAAPLALGDVEIEIIDKLISIPYVEMTLRLMERFGVKAEHSDSWDRFYIKGGQKYKSPKNAYVEGDASSASYFLAGAAITGGTVTVEGCGTTSLQGDVKFAEVLEMMGAKVTWTETSVTVTGPPREPFGRKHLKAIDVNMNKMPDVAMTLAVVALFADGPTAIRDVASWRVKETERMVAIRTELTKLGASVEEGPDYCIITPPEKLNVTAIDTYDDHRMAMAFSLAACAEVPVTIRDPGCTRKTFPDYFDVLSTFVKN
modifications: Mutated zea mays; (68)..(68) X = D or E
- ability to regenerate on glyphosate media [2]: tolerant mutants
- tolerance to Touchdown spray [3]: completely tolerant
- herbicide damage [3]: only minor damage
- Damage [3, 4]: No damage
- Damage [3, 5]: No damage
- Damage [3, 6]: Minor damage, some
